According to patent US20240116985A1 (published 2024):
Starred links: 1 amine or outer side, 2 acyl side, 3 side chain; linkers in the order of their positions; H or OH if unused. Positions of bridges follow the written chain, without caps; N, C: chain ends. Non-standard residues stand in square brackets, D forms with d. Primed or numbered codes have the meaning given here. ξ: configuration not given here. PyrS2(3) = (S)-3-amino-1-((pent-4-en-1-yloxy)carbonyl)pyrrolidine-3-carboxylic acid, stapling residue, C=CCCCOC(=O)N1CC[C@@](N[*:1])(C(=O)[*:2])C1; PyrS2″ = (S)-3-amino-1-((pent-4-en-1-yloxy)carbonyl)pyrrolidine-3-carboxylic acid (stapling residue), C=CCCCOC(=O)N1CC[C@@](N[*:1])(C(=O)[*:2])C1; B5(4) = 2,2-bis(4-pentenyl)glycine = 2-amino-2-(pent-4-en-1-yl)hept-6-enoic acid (stitching residue), C=CCCCC(CCCC=C)(N[*:1])C(=O)[*:2]; B5(20) = 2-amino-2-(pent-4-en-1-yl)hept-6-enoic acid = bis(4-pentenyl)glycine, stitching residue, C=CCCCC(CCCC=C)(N[*:1])C(=O)[*:2]; TfeGA = (S)-2-amino-3-((carboxymethyl)(2,2,2-trifluoroethyl)amino)propanoic acid, O=C([C@H](CN(CC(=O)[*:3])CC(F)(F)F)N[*:1])[*:2]; PyrS2 = (S)-3-amino-1-((pent-4-en-1-yloxy)carbonyl)pyrrolidine-3-carboxylic acid, C=CCCCOC(=O)N1CC[C@@](N[*:1])(C(=O)[*:2])C1; B5″ = 2,2-bis(4-pentenyl)glycine, stitching residue, C=CCCCC(CCCC=C)(N[*:1])C(=O)[*:2]; Phe(2-Cl) = N[C@@H](Cc1ccccc1Cl)C(=O)O; Bta = N[C@@H](Cc1csc2ccccc12)C(=O)O; αAllylPro = C=CC[C@@]1(C(=O)O)CCCN1; tBuAla = CC(C)(C)C[C@H](N)C(=O)O; 3Thi = N[C@@H](Cc1ccsc1)C(=O)O; S8 = C=CCCCCCC[C@](C)(N)C(=O)O; Thr(ol) = C[C@@H](O)[C@H](N)CO; ξβ3hD = NC(CC(=O)O)CC(=O)O

Key:
[1] = target: T1, full-length beta-Catenin (Uniprot ID P35222) (Homo sapiens (Human), UniProt P35222 1-781); assay: fluorescence polarization competition; full-length beta-catenin; competitor 5FAM-TCF4(10-53) probe
T1 construct: also called bCat
T1 sequence: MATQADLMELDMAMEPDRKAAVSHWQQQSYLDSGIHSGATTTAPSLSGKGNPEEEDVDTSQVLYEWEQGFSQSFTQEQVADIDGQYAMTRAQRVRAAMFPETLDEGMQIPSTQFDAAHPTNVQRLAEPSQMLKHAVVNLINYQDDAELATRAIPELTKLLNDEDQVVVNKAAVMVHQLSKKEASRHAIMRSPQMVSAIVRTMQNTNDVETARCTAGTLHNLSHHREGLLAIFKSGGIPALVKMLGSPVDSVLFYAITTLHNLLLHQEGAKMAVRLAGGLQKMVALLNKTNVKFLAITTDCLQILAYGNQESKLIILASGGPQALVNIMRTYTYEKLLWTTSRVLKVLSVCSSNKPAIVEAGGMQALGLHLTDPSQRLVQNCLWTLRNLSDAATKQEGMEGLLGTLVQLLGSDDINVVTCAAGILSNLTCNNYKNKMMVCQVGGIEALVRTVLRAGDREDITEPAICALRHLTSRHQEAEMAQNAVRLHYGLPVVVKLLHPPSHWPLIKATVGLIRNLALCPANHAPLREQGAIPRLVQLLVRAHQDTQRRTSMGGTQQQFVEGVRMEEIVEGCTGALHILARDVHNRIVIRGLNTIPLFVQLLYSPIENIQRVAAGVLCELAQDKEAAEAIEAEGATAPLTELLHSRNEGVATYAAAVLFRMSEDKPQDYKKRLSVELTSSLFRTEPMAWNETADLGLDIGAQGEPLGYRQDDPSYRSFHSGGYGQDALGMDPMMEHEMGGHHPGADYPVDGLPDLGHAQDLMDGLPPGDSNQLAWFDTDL
Method: The plate was incubated protected from light for 60 minutes at 20° C. prior to read. Reads were performed on a CLARIOstar plate reader (BMG Labtech) in duplicate, and data were fitted to a 1:1 binding model with hill slope using an in-house script. All provided concentrations are final concentrations.

[2] = target: T2, B-cat-Halo (NanoBRET construct expressed in HEK293 cells) (UniProt P35222 1-781); assay: cell-based or functional assay
T2 sequence (looked up): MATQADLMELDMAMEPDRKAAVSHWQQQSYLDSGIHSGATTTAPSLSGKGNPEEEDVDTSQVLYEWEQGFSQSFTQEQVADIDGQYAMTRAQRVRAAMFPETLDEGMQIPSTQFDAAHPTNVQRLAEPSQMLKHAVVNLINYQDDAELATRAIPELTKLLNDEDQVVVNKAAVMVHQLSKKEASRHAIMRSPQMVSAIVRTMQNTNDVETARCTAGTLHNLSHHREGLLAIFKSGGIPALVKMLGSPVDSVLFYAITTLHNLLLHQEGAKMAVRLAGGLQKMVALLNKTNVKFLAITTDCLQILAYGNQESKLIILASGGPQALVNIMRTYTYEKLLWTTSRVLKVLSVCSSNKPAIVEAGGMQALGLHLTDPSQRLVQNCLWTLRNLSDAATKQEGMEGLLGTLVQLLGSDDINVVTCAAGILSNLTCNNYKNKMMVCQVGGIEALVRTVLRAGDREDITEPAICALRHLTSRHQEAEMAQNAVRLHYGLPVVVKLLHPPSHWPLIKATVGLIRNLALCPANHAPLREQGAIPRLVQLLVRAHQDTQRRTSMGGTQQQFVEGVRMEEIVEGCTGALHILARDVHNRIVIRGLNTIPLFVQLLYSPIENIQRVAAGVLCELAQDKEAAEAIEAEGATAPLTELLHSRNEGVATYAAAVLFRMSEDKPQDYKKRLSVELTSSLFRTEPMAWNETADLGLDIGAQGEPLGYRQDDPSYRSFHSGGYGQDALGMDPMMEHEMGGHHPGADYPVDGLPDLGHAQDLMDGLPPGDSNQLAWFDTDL

B-cat-Halo = target: T3, B-cat-Halo (UniProt P35222 1-781); assay: cell-based or functional assay
T3 sequence (looked up): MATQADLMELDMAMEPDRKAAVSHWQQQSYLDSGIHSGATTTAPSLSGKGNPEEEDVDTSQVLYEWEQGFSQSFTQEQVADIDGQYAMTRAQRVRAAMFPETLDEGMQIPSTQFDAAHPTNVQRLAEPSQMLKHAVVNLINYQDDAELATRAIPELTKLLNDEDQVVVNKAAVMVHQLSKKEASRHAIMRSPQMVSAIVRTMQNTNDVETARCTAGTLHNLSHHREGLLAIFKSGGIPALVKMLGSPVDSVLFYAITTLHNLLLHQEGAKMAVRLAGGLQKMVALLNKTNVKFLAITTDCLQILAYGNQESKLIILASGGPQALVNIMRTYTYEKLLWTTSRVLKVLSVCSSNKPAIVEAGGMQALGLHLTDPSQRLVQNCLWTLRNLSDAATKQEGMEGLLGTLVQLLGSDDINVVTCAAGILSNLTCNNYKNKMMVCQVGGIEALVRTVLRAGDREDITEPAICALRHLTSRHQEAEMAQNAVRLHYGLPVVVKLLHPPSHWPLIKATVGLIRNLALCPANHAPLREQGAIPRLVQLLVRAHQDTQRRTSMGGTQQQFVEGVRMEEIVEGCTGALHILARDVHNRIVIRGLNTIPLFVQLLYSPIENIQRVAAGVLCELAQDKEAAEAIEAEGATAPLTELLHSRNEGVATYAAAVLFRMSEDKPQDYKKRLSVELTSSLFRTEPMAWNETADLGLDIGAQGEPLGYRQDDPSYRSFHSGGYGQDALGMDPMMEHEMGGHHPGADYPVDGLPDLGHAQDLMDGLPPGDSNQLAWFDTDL

[3] = target: T4, B-cat-Halo (beta-catenin HaloTag construct expressed in HEK293 cells) (UniProt P35222 1-781); assay: cell-based or functional assay
T4 sequence (looked up): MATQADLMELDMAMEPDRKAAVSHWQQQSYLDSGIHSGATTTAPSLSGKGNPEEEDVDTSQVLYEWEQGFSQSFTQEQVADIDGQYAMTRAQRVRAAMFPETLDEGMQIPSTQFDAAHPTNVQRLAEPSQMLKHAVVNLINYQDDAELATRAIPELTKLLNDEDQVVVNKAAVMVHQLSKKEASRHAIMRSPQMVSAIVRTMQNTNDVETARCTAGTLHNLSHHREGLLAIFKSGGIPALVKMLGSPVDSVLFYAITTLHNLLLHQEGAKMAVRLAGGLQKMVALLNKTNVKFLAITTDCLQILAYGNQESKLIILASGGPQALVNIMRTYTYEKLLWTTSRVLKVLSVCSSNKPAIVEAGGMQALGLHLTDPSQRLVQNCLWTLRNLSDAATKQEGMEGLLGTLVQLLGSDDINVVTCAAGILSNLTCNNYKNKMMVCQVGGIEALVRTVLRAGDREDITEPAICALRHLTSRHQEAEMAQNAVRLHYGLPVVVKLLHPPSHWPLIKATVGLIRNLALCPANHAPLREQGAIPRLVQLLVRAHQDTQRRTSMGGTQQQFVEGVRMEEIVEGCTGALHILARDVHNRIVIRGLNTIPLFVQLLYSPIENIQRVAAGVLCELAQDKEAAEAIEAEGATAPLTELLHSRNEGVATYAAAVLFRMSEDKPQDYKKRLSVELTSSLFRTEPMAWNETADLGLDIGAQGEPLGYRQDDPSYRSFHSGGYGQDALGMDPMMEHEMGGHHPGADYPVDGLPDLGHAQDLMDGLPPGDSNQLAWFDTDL

[4] = target: T5, beta-catenin in TCF/LEF luciferase reporter cells (Homo sapiens (Human), UniProt P35222 1-781); assay: cell-based or functional assay
T5 sequence: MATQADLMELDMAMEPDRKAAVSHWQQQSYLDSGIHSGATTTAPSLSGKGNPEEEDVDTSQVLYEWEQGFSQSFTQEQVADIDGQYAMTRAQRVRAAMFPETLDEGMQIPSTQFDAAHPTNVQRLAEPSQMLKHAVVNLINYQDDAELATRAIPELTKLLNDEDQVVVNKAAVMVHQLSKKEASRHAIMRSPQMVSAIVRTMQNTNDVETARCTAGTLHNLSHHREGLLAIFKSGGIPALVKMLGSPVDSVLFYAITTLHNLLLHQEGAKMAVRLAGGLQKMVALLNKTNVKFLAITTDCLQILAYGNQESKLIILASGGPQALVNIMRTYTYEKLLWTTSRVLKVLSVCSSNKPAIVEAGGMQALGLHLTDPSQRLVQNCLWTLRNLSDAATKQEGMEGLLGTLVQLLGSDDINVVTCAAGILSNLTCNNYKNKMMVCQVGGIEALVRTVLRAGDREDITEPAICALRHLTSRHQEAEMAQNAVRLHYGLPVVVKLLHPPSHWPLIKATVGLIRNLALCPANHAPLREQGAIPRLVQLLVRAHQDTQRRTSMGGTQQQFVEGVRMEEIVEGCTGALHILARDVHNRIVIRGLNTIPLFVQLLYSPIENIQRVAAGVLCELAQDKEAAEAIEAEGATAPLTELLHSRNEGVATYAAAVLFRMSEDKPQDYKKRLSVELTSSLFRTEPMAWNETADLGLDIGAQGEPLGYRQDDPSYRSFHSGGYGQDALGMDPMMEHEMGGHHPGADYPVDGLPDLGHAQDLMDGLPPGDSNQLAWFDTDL

B1: I-1158 (peptide)
peptide: Ac-[αAllylPro]DF[B5(4)]DDLLFT[PyrS2″][Phe(2-Cl)][Bta]S-NH2
modifications: staple 1-4, 4-11
notes: stapled peptide
For B1, the EC50 [1] was 0.168 µM.

B2: I-521 (peptide)
peptide: Ac-[αAllylPro]DI[B5(20)]DEAAFN[S8][3Thi][Bta]Q-NH2
modifications: staple 1-4, 4-11; also: later-eluting HPLC peak of staple isomers
In the case of B2, the “NanoBRET Abs IC50” value [2] is reported as 15.4 µM.

B3: I-1303 (peptide)
peptide: Ac-[αAllylPro]D[tBuAla][B5(4)]DDAAFF[PyrS2][3Thi][Bta][Thr(ol)]
modifications: staple 1-4, 4-11
B3 was tested, and the “NanoBRET Abs IC50 (uM); B-cat-Halo / TCF4-Luc in HEK293 cells” value (B-cat-Halo) was 9.1 µM.

B4: I-1311 (peptide)
peptide: Ac-[αAllylPro]D[tBuAla][B5(4)]DDAAFF[PyrS2″][Phe(2-Cl)][Bta][Thr(ol)]
modifications: staple 1-4, 4-11
B4 was tested, and the “NanoBRET Abs IC50 (uM); B-cat-Halo / TCF4-Luc in HEK293 cells” value (B-cat-Halo) was 20.6 µM.

B5: I-1161 (peptide)
peptide: Ac-[αAllylPro][ξβ3hD][tBuAla][B5(4)]D[TfeGA]AAFN[PyrS2″][3Thi][Bta]Q-NH2
modifications: staple 1-4, 4-11
With B5 the “NanoBRET Abs IC50” value [3] was over 20 µM.

B6: I-1166 (peptide)
peptide: Ac-[αAllylPro]D[tBuAla][B5(4)]DTAAFT[PyrS2″][3Thi][Bta]Q-NH2
modifications: staple 1-4, 4-11
With B6 the “NanoBRET Abs IC50” value [3] was 14.6 µM.

B7: I-762 (peptide)
peptide: Ac-[αAllylPro]D[tBuAla][B5″]D[TfeGA]AAFN[PyrS2(3)][3Thi][Bta]Q-NH2
modifications: staple 1-4, 4-11
In the case of B7, the “TCF Reporter Assay Abs IC50 (uM), peptide + ST-Protein” value [4] is reported as 0.3 µM and the “TCF Reporter Assay Abs IC50 (uM), peptide only” value [4] is reported as 7 µM.
